# Assay results from US20150344540A1, “NOVEL GLP-1 RECEPTOR AGONISTS WITH CHOLESTEROL EFFLUX ACTIVITY” (NOVO NORDISK A/S, priority 2012, published 2015).
# Where no end group is shown, it is not given here. [ ]: non-standard residue; d: D form. Aib = CC(C)(N)C(=O)O
# B1: [Aib8,Glu23,Val25,Glu34,Lys35,Val36,Lys37]-GLP-1-(7-37)-peptidyl-Glu-Val-Leu amide (peptide)
# peptide: H[Aib]EGTFTSDVSSYLEGEAVKEFIAWLVEKVKEVL-NH2
# modifications: N-terminus assumed
# SMILES: CC[C@H](C)[C@H](NC(=O)[C@H](Cc1ccccc1)NC(=O)[C@H](CCC(=O)O)NC(=O)[C@H](CCCCN)NC(=O)[C@@H](NC(=O)[C@H](C)NC(=O)[C@H](CCC(=O)O)NC(=O)CNC(=O)[C@H](CCC(=O)O)NC(=O)[C@H](CC(C)C)NC(=O)[C@H](Cc1ccc(O)cc1)NC(=O)[C@H](CO)NC(=O)[C@H](CO)NC(=O)[C@@H](NC(=O)[C@H](CC(=O)O)NC(=O)[C@H](CO)NC(=O)[C@@H](NC(=O)[C@H](Cc1ccccc1)NC(=O)[C@@H](NC(=O)CNC(=O)[C@H](CCC(=O)O)NC(=O)C(C)(C)NC(=O)[C@@H](N)Cc1c[nH]cn1)[C@@H](C)O)[C@@H](C)O)C(C)C)C(C)C)C(=O)N[C@@H](C)C(=O)N[C@@H](Cc1c[nH]c2ccccc12)C(=O)N[C@@H](CC(C)C)C(=O)N[C@H](C(=O)N[C@@H](CCC(=O)O)C(=O)N[C@@H](CCCCN)C(=O)N[C@H](C(=O)N[C@@H](CCCCN)C(=O)N[C@@H](CCC(=O)O)C(=O)N[C@H](C(=O)N[C@@H](CC(C)C)C(N)=O)C(C)C)C(C)C)C(C)C
# B2: [Aib8,Glu23,Val25,Glu34,Lys35,Aib36,Lys37]-GLP-1-(7-37)-peptide amide (peptide)
# peptide: H[Aib]EGTFTSDVSSYLEGEAVKEFIAWLVEK[Aib]K-NH2
# modifications: N-terminus assumed
# SMILES: CC[C@H](C)[C@H](NC(=O)[C@H](Cc1ccccc1)NC(=O)[C@H](CCC(=O)O)NC(=O)[C@H](CCCCN)NC(=O)[C@@H](NC(=O)[C@H](C)NC(=O)[C@H](CCC(=O)O)NC(=O)CNC(=O)[C@H](CCC(=O)O)NC(=O)[C@H](CC(C)C)NC(=O)[C@H](Cc1ccc(O)cc1)NC(=O)[C@H](CO)NC(=O)[C@H](CO)NC(=O)[C@@H](NC(=O)[C@H](CC(=O)O)NC(=O)[C@H](CO)NC(=O)[C@@H](NC(=O)[C@H](Cc1ccccc1)NC(=O)[C@@H](NC(=O)CNC(=O)[C@H](CCC(=O)O)NC(=O)C(C)(C)NC(=O)[C@@H](N)Cc1c[nH]cn1)[C@@H](C)O)[C@@H](C)O)C(C)C)C(C)C)C(=O)N[C@@H](C)C(=O)N[C@@H](Cc1c[nH]c2ccccc12)C(=O)N[C@@H](CC(C)C)C(=O)N[C@H](C(=O)N[C@@H](CCC(=O)O)C(=O)N[C@@H](CCCCN)C(=O)NC(C)(C)C(=O)N[C@@H](CCCCN)C(N)=O)C(C)C
# B3: [Aib8,Glu22,Glu23,Val25,Glu34,Lys35,Val36,Lys37]-GLP-1-(7-37)-peptidyl-Glu-Phe-Leu amide (peptide)
# peptide: H[Aib]EGTFTSDVSSYLEEEAVKEFIAWLVEKVKEFL-NH2
# modifications: N-terminus assumed
# SMILES: CC[C@H](C)[C@H](NC(=O)[C@H](Cc1ccccc1)NC(=O)[C@H](CCC(=O)O)NC(=O)[C@H](CCCCN)NC(=O)[C@@H](NC(=O)[C@H](C)NC(=O)[C@H](CCC(=O)O)NC(=O)[C@H](CCC(=O)O)NC(=O)[C@H](CCC(=O)O)NC(=O)[C@H](CC(C)C)NC(=O)[C@H](Cc1ccc(O)cc1)NC(=O)[C@H](CO)NC(=O)[C@H](CO)NC(=O)[C@@H](NC(=O)[C@H](CC(=O)O)NC(=O)[C@H](CO)NC(=O)[C@@H](NC(=O)[C@H](Cc1ccccc1)NC(=O)[C@@H](NC(=O)CNC(=O)[C@H](CCC(=O)O)NC(=O)C(C)(C)NC(=O)[C@@H](N)Cc1c[nH]cn1)[C@@H](C)O)[C@@H](C)O)C(C)C)C(C)C)C(=O)N[C@@H](C)C(=O)N[C@@H](Cc1c[nH]c2ccccc12)C(=O)N[C@@H](CC(C)C)C(=O)N[C@H](C(=O)N[C@@H](CCC(=O)O)C(=O)N[C@@H](CCCCN)C(=O)N[C@H](C(=O)N[C@@H](CCCCN)C(=O)N[C@@H](CCC(=O)O)C(=O)N[C@@H](Cc1ccccc1)C(=O)N[C@@H](CC(C)C)C(N)=O)C(C)C)C(C)C
# B4: [Aib8,Glu23,Val25,Aib36,Lys37]-des-Lys34-GLP-1-(7-37)-peptidyl-Glu-Phe-Leu amide (peptide)
# peptide: H[Aib]EGTFTSDVSSYLEGEAVKEFIAWLVG[Aib]KEFL-NH2
# modifications: N-terminus assumed
# SMILES: CC[C@H](C)[C@H](NC(=O)[C@H](Cc1ccccc1)NC(=O)[C@H](CCC(=O)O)NC(=O)[C@H](CCCCN)NC(=O)[C@@H](NC(=O)[C@H](C)NC(=O)[C@H](CCC(=O)O)NC(=O)CNC(=O)[C@H](CCC(=O)O)NC(=O)[C@H](CC(C)C)NC(=O)[C@H](Cc1ccc(O)cc1)NC(=O)[C@H](CO)NC(=O)[C@H](CO)NC(=O)[C@@H](NC(=O)[C@H](CC(=O)O)NC(=O)[C@H](CO)NC(=O)[C@@H](NC(=O)[C@H](Cc1ccccc1)NC(=O)[C@@H](NC(=O)CNC(=O)[C@H](CCC(=O)O)NC(=O)C(C)(C)NC(=O)[C@@H](N)Cc1c[nH]cn1)[C@@H](C)O)[C@@H](C)O)C(C)C)C(C)C)C(=O)N[C@@H](C)C(=O)N[C@@H](Cc1c[nH]c2ccccc12)C(=O)N[C@@H](CC(C)C)C(=O)N[C@H](C(=O)NCC(=O)NC(C)(C)C(=O)N[C@@H](CCCCN)C(=O)N[C@@H](CCC(=O)O)C(=O)N[C@@H](Cc1ccccc1)C(=O)N[C@@H](CC(C)C)C(N)=O)C(C)C
# B5: [Aib8,Glu23,Val25,Glu34,Lys35,Val36,Lys37]-GLP-1-(7-37)-peptidyl-Glu-Leu-Leu amide (peptide)
# peptide: H[Aib]EGTFTSDVSSYLEGEAVKEFIAWLVEKVKELL-NH2
# modifications: N-terminus assumed
# SMILES: CC[C@H](C)[C@H](NC(=O)[C@H](Cc1ccccc1)NC(=O)[C@H](CCC(=O)O)NC(=O)[C@H](CCCCN)NC(=O)[C@@H](NC(=O)[C@H](C)NC(=O)[C@H](CCC(=O)O)NC(=O)CNC(=O)[C@H](CCC(=O)O)NC(=O)[C@H](CC(C)C)NC(=O)[C@H](Cc1ccc(O)cc1)NC(=O)[C@H](CO)NC(=O)[C@H](CO)NC(=O)[C@@H](NC(=O)[C@H](CC(=O)O)NC(=O)[C@H](CO)NC(=O)[C@@H](NC(=O)[C@H](Cc1ccccc1)NC(=O)[C@@H](NC(=O)CNC(=O)[C@H](CCC(=O)O)NC(=O)C(C)(C)NC(=O)[C@@H](N)Cc1c[nH]cn1)[C@@H](C)O)[C@@H](C)O)C(C)C)C(C)C)C(=O)N[C@@H](C)C(=O)N[C@@H](Cc1c[nH]c2ccccc12)C(=O)N[C@@H](CC(C)C)C(=O)N[C@H](C(=O)N[C@@H](CCC(=O)O)C(=O)N[C@@H](CCCCN)C(=O)N[C@H](C(=O)N[C@@H](CCCCN)C(=O)N[C@@H](CCC(=O)O)C(=O)N[C@@H](CC(C)C)C(=O)N[C@@H](CC(C)C)C(N)=O)C(C)C)C(C)C
# B6: [Aib8,Glu23,Val25,Glu34,Lys35,Val36,Lys37]-GLP-1-(7-37)-peptidyl-Glu-Phe-Phe amide (peptide)
# peptide: H[Aib]EGTFTSDVSSYLEGEAVKEFIAWLVEKVKEFF-NH2
# modifications: N-terminus assumed
# SMILES: CC[C@H](C)[C@H](NC(=O)[C@H](Cc1ccccc1)NC(=O)[C@H](CCC(=O)O)NC(=O)[C@H](CCCCN)NC(=O)[C@@H](NC(=O)[C@H](C)NC(=O)[C@H](CCC(=O)O)NC(=O)CNC(=O)[C@H](CCC(=O)O)NC(=O)[C@H](CC(C)C)NC(=O)[C@H](Cc1ccc(O)cc1)NC(=O)[C@H](CO)NC(=O)[C@H](CO)NC(=O)[C@@H](NC(=O)[C@H](CC(=O)O)NC(=O)[C@H](CO)NC(=O)[C@@H](NC(=O)[C@H](Cc1ccccc1)NC(=O)[C@@H](NC(=O)CNC(=O)[C@H](CCC(=O)O)NC(=O)C(C)(C)NC(=O)[C@@H](N)Cc1c[nH]cn1)[C@@H](C)O)[C@@H](C)O)C(C)C)C(C)C)C(=O)N[C@@H](C)C(=O)N[C@@H](Cc1c[nH]c2ccccc12)C(=O)N[C@@H](CC(C)C)C(=O)N[C@H](C(=O)N[C@@H](CCC(=O)O)C(=O)N[C@@H](CCCCN)C(=O)N[C@H](C(=O)N[C@@H](CCCCN)C(=O)N[C@@H](CCC(=O)O)C(=O)N[C@@H](Cc1ccccc1)C(=O)N[C@@H](Cc1ccccc1)C(N)=O)C(C)C)C(C)C
# Biological target: human GLP-1 receptor (human, UniProt P43220)
# Assay: cell-based or functional assay
Binder,"CRE luciferase EC50, 0% HSA [pM]","CRE luciferase EC50, 1% HSA [pM]"
"HGEGTFTSDVSSYLEEEAVKEFIAWLVEKVKEFL-NH2 [[Gly8,Glu22,Glu23,Val25,Glu34,Lys35,Val36,Lys37]-GLP-1-(7-37)-peptidyl-Glu-Phe-Leu amide]",974,302
B1,198,65
B2,15,4
B3,116,34
"HAEGTFTSDVSSYLEGEAVKEFIAWLVEKVKEFLEK [[Glu23,Val25,Glu34,Lys35,Val36,Lys37]-GLP-1-(7-37)-peptidyl-Glu-Phe-Leu-Glu-Lys]",98,31
"HAEGTFTSDVSSYLEGQAAKEFIAWLVEGVKEFLEK [[Glu34,Val36,Lys37]-GLP-1-(7-37)-peptidyl-Glu-Phe-Leu-Glu-Lys]",85,23
"HAEGTFTSDVSSYLEGQAAKEFIAWLVEKVKEFLER [[Glu34,Lys35,Val36,Lys37]-GLP-1-(7-37)-peptidyl-Glu-Phe-Leu-Glu-Arg]",34,11
"HAEGTFTSDVSSYLEGQAAKEFIAWLVEKVKEFLEK [[Glu34,Lys35,Val36,Lys37]-GLP-1-(7-37)-peptidyl-Glu-Phe-Leu-Glu-Lys]",30,11
"HAEGTFTSDVSSYLEGQAAKEFIAWLVEKVKEFLDK [[Glu34,Lys35,Val36,Lys37]-GLP-1-(7-37)-peptidyl-Glu-Phe-Leu-Asp-Lys]",45,12
"H[Aib]EGTFTSDVSSYLEEEAVKEFIAWLVEKVKEF-NH2 [[Aib8,Glu22,Glu23,Val25,Glu34,Lys35,Val36,Lys37]-GLP-1-(7-37)-peptidyl-Glu-Phe amide]",29,12
"HAEGTFTSDVSSYLEGQAAKEFIAWLVEKVKEFY-NH2 [[Glu34,Lys35,Val36,Lys37]-GLP-1-(7-37)-peptidyl-Glu-Phe-Tyr amide]",37,14
B4,10,4
"HAEGTFTSDVSSYLEGQAAKEFIAWLVEKVKEF-NH2 [[Glu34,Lys35,Val36,Lys37]-GLP-1-(7-37)-peptidyl-Glu-Phe amide]",16,5
"HAEGTFTSDVSSYLEEEAVKEFIAWLVEKVKEFL-NH2 [[Glu22,Glu23,Val25,Glu34,Lys35,Val36,Lys37]-GLP-1-(7-37)-peptidyl-Glu-Phe-Leu amide]",299,114
B5,489,303
B6,525,372
"HGEGTFTSDVSSYLEEEAVKEFIAWLVEKVKEF-NH2 [[Gly8,Glu22,Glu23,Val25,Glu34,Lys35,Val36,Lys37]-GLP-1-(7-37)-peptidyl-Glu-Phe amide]",104,27
"HAEGTFTSDVSSYLEEEAVKEFIAWLVEKVKEF-NH2 [[Glu22,Glu23,Val25,Glu34,Lys35,Val36,Lys37]-GLP-1-(7-37)-peptidyl-Glu-Phe amide]",20,10
"H-HAEGTFTSDVSSYLEGQAAKEFIAWLVEKVGEFLEK [[Glu34,Lys35,Val36]-GLP-1-(7-37)-peptidyl-Glu-Phe-Leu-Glu-Lys]",41,13
